Drawing on publication PMC5454376, “Molecular mechanism of Gαi activation by non-GPCR proteins with a Gα-Binding and Activating motif” (Nature Communications, 2017), this text covers ratio to parent and Kd for 17 variants.

For orientation: Kd means the constant that tells how readily two partners part at equilibrium.

The chains are these.
B1: Human His-Gαi3 WT [human] / Fluorescein-labelled GIV peptide (residues 1,671–1,701) [modified: 5,6-carboxyfluorescein coupled to the resin-bound peptide after chain elongation; 5,6-carboxyfluorescein coupled to the resin-bound … (parent)
chain 1: MGCTLSAEDKAAVERSKMIDRNLREDGEKAAKEVKLLLLGAGESGKSTIVKQMKIIHEDGYSEDECKQYKVVVYSNTIQSIIAIIRAMGRLKIDFGEAARADDARQLFVLAGSAEEGVMTPELAGVIKRLWRDGGVQACFSRSREYQLNDSASYYLNDLDRISQSNYIPTQQDVLRTRVKTTGIVETHFTFKDLYFKMFDVGGQRSERKKWIHCFEGVTAIIFCVALSDYDLVLAEDEEMNRMHESMKLFDSICNNKWFTETSIILFLNKKDLFEEKIKRSPLTICYPEYTGSNTYEEAAAYIQCQFEDLNRRKDTKEIYTHFTCATDTKNVQFVFDAVTDVIIKNNLKECGLY
chain 2: KTGSPGSEVVTLQQFLEESNKLTSVQIKSSS

The variants in this assay derive from B1. In words: fluorescence polarisation. Conditions: with Fluorescein-labelled GIV peptide (residues 1,671–1,701) [modified: 5,6-carboxyfluorescein coupled to the resin-bound peptide after chain elongation.
Regarding chain 1 MGCTLSAEDKAAVERSKMIDRNLREDGEKAAKEVKLLLLGAGESGKSTIVKQMKIIHEDGYSEDECKQYKVVVYSNTIQSIIAIIRAMGRLKIDFGEAARADDARQLFVLAGSAEEGVMTPELAGVIKRLWRDGGVQACFSRSREYQLNDSASYYLNDLDRISQSNYIPTQQDVLRTRVKTTGAVETHFTFKDLYFKMFDVGGQRSERKKWIHCFEGVTAIIFCVALSDYDLVLAEDEEMNRMHESMKLFDSICNNKWFTETSIILFLNKKDLFEEKIKRSPLTICYPEYTGSNTYEEAAAYIQCQFEDLNRRKDTKEIYTHFTCATDTKNVQFVFDAVTDVIIKNNLKECGLY [chain 1 I184A], the ratio to parent turned out to be 3.28. For the variant chain 1 MGCTLSAEDKAAVERSKMIDRNLREDGEKAAKEVKLLLLGAGESGKSTIVKQMKIIHEDGYSEDECKQYKVVVYSNTIQSIIAIIRAMGRLKIDFGEAARADDARQLFVLAGSAEEGVMTPELAGVIKRLWRDGGVQACFSRSREYQLNDSASYYLNDLDRISQSNYIPTQQDVLRTRVKTTGIVETHFTFKDLYFKMFDVGGQRSERKKWIHCFEGATAIIFCVALSDYDLVLAEDEEMNRMHESMKLFDSICNNKWFTETSIILFLNKKDLFEEKIKRSPLTICYPEYTGSNTYEEAAAYIQCQFEDLNRRKDTKEIYTHFTCATDTKNVQFVFDAVTDVIIKNNLKECGLY [chain 1 V218A], the ratio to parent amounted to 0.623. chain 1 MGCTLSAEDKAAVERSKMIDRNLREDGEKAAKEVKLLLLGAGESGKSTIVKQMKIIHEDGYSEDECKQYKVVVYSNTIQSIIAIIRAMGRLKIDFGEAARADDARQLFVLAGSAEEGVMTPELAGVIKRLWRDGGVQACFSRSREYQLNDSASYYLNDLDRISQSNYIPTQQDVLRTRVKTTGIVETHFTFKDLYFKMFDVGGQRSERKKWIHCFEGVTAIIFCVALSDYDLVLAEDEEMNRMHESMKLFDAICNNKWFTETSIILFLNKKDLFEEKIKRSPLTICYPEYTGSNTYEEAAAYIQCQFEDLNRRKDTKEIYTHFTCATDTKNVQFVFDAVTDVIIKNNLKECGLY [chain 1 S252A]: the ratio to parent stood at 0.417. Take chain 1 MGCTLSAEDKAAVERSKMIDRNLREDGEKAAKEVKLLLLGAGESGKSTIVKQMKIIHEDGYSEDECKQYKVVVYSNTIQSIIAIIRAMGRLKIDFGEAARADDARQLFVLAGSAEEGVMTPELAGVIKRLWRDGGVQACFSRSREYQLNDSASYYLNDLDRISQSNYIPTQQDVLRTRVKTTGIVETHFTFKDLYFKMFDVGGQRSERKKWIHCFEGVTAIIFCVALSDYDLVLAEDEEMNRMHESMKLFDDICNNKWFTETSIILFLNKKDLFEEKIKRSPLTICYPEYTGSNTYEEAAAYIQCQFEDLNRRKDTKEIYTHFTCATDTKNVQFVFDAVTDVIIKNNLKECGLY [chain 1 S252D]: the ratio to parent turned out to be 5.32. As for chain 1 MGCTLSAEDKAAVERSKMIDRNLREDGEKAAKEVKLLLAGAGESGKSTIVKQMKIIHEDGYSEDECKQYKVVVYSNTIQSIIAIIRAMGRLKIDFGEAARADDARQLFVLAGSAEEGVMTPELAGVIKRLWRDGGVQACFSRSREYQLNDSASYYLNDLDRISQSNYIPTQQDVLRTRVKTTGIVETHFTFKDLYFKMFDVGGQRSERKKWIHCFEGVTAIIFCVALSDYDLVLAEDEEMNRMHESMKLFDSICNNKWFTETSIILFLNKKDLFEEKIKRSPLTICYPEYTGSNTYEEAAAYIQCQFEDLNRRKDTKEIYTHFTCATDTKNVQFVFDAVTDVIIKNNLKECGLY [chain 1 L39A], the ratio to parent amounted to 5.3.

In the case of chain 1 MGCTLSAEDKAAVERSKMIDRNLREDGEKAAKEVKALLLGAGESGKSTIVKQMKIIHEDGYSEDECKQYKVVVYSNTIQSIIAIIRAMGRLKIDFGEAARADDARQLFVLAGSAEEGVMTPELAGVIKRLWRDGGVQACFSRSREYQLNDSASYYLNDLDRISQSNYIPTQQDVLRTRVKTTGIVETHFTFKDLYFKMFDVGGQRSERKKWIHCFEGVTAIIFCVALSDYDLVLAEDEEMNRMHESMKLFDSICNNKWFTETSIILFLNKKDLFEEKIKRSPLTICYPEYTGSNTYEEAAAYIQCQFEDLNRRKDTKEIYTHFTCATDTKNVQFVFDAVTDVIIKNNLKECGLY [chain 1 L36A], the ratio to parent is 1.22. Consider chain 1 MGCTLSAEDKAAVERSKMIDRNLREDGEKAAKEVKLLLLGAGESGKSTIVKQMKIIHEDGYSEDECKQYKVVVYSNTIQSIIAIIRAMGRLKIDFGEAARADDARQLFVLAGSAEEGVMTPELAGVIKRLWRDGGVQACFSRSREYQLNDSASYYLNDLDRISQSNYIPTQQDVLRTRVKTTGIVETHFTFKDLYFKMFDVGGQRSERKKWIHCFEGVTAIIFCVALSDYDLVLAEDEEMNRMHESMKLFDSICNNKWATETSIILFLNKKDLFEEKIKRSPLTICYPEYTGSNTYEEAAAYIQCQFEDLNRRKDTKEIYTHFTCATDTKNVQFVFDAVTDVIIKNNLKECGLY [chain 1 F259A], for which the ratio to parent is 2.57. With chain 1 MGCTLSAEDKAAVERSKMIDRNLREDGEKAAKEVKLLLLGAGESGKSTIVKQMKIIHEDGYSEDECKQYKVVVYSNTIQSIIAIIRAMGRLKIDFGEAARADDARQLFVLAGSAEEGVMTPELAGVIKRLWRDGGVQACFSRSREYQLNDSASYYLNDLDRISQSNYIPTQQDVLRTRVKTTGIVETHFTFKDLYFKMFDVGGQRSERKKWIHCFEGVTAIIFCVALSDYDLVLAEDEEMNRMHESMKLFDSICNAKWFTETSIILFLNKKDLFEEKIKRSPLTICYPEYTGSNTYEEAAAYIQCQFEDLNRRKDTKEIYTHFTCATDTKNVQFVFDAVTDVIIKNNLKECGLY [chain 1 N256A], the ratio to parent is 2.11. Take chain 1 MGCTLSAEDKAAVERSKMIDRNLREDGEKAAKEVKLLLLGAGESGKSTIVKQMKIIHEDGYSEDECKQYKVVVYSNTIQSIIAIIRAMGRLKIDFGEAARADDARQLFVLAGSAEEGVMTPELAGVIKRLWRDGGVQACFSRSREYQLNDSASYYLNDLDRISQSNYIPTQQDVLRTRVKTTGIVETHFTFKDLYFKMFDVGGQRSERKKWIHCFEGVTAIIFCVALSDYDLVLAEDEEMNRMHESMKLFDSICNEKWFTETSIILFLNKKDLFEEKIKRSPLTICYPEYTGSNTYEEAAAYIQCQFEDLNRRKDTKEIYTHFTCATDTKNVQFVFDAVTDVIIKNNLKECGLY [chain 1 N256E]: the Kd was more than 20 µM and the ratio to parent was more than 40. As for chain 1 MGCTLSAEDKAAVERSKMIDRNLREDGEKAAKEVKLLLLGAGESGKSTIVKQMKIIHEDGYSEDECKQYKVVVYSNTIQSIIAIIRAMGRLKIDFGEAARADDARQLFVLAGSAEEGVMTPELAGVIKRLWRDGGVQACFSRSREYQLNDSASYYLNDLDRISQSNYIPTQQDVLRTRVKTTGIVETHFTFKDLYFKMFDVGGQRSERKKAIHCFEGVTAIIFCVALSDYDLVLAEDEEMNRMHESMKLFDSICNNKWFTETSIILFLNKKDLFEEKIKRSPLTICYPEYTGSNTYEEAAAYIQCQFEDLNRRKDTKEIYTHFTCATDTKNVQFVFDAVTDVIIKNNLKECGLY [chain 1 W211A], the Kd was more than 20 µM and the ratio to parent was more than 40.

As for chain 1 MGCTLSAEDKAAVERSKMIDRNLREDGEKAAKEVKLLLLGARESGKSTIVKQMKIIHEDGYSEDECKQYKVVVYSNTIQSIIAIIRAMGRLKIDFGEAARADDARQLFVLAGSAEEGVMTPELAGVIKRLWRDGGVQACFSRSREYQLNDSASYYLNDLDRISQSNYIPTQQDVLRTRVKTTGIVETHFTFKDLYFKMFDVGGQRSERKKWIHCFEGVTAIIFCVALSDYDLVLAEDEEMNRMHESMKLFDSICNNKWFTETSIILFLNKKDLFEEKIKRSPLTICYPEYTGSNTYEEAAAYIQCQFEDLNRRKDTKEIYTHFTCATDTKNVQFVFDAVTDVIIKNNLKECGLY [chain 1 G42R], the Kd is 0.377 µM and the ratio to parent was 0.649. Take chain 1 MGCTLSAEDKAAVERSKMIDRNLREDGEKAAKEVKLLLLGAGESGKSTIVKQMKIIHEDGYSEDECKQYKVVVYSNTIQSIIAIIRAMGRLKIDFGEAARADDARQLFVLAGSAEEGVMTPELAGVIKRLWRDGGVQACFSRSREYQLNDSASYYLNDLDRISQSNYIPTQQDVLRTRVKTTGIVETHFTFKDLYFKMFDVGGQRSERKKWIHCFEGVTAIIFCVALSDYDLVLAEDEEMNRMHESMKLFDSICNNAWFTETSIILFLNKKDLFEEKIKRSPLTICYPEYTGSNTYEEAAAYIQCQFEDLNRRKDTKEIYTHFTCATDTKNVQFVFDAVTDVIIKNNLKECGLY [chain 1 K257A]: the ratio to parent turned out to be 1.77. Regarding chain 1 MGCTLSAEDKAAVERSKMIDRNLREDGEKAAKEVALLLLGAGESGKSTIVKQMKIIHEDGYSEDECKQYKVVVYSNTIQSIIAIIRAMGRLKIDFGEAARADDARQLFVLAGSAEEGVMTPELAGVIKRLWRDGGVQACFSRSREYQLNDSASYYLNDLDRISQSNYIPTQQDVLRTRVKTTGIVETHFTFKDLYFKMFDVGGQRSERKKWIHCFEGVTAIIFCVALSDYDLVLAEDEEMNRMHESMKLFDSICNNKWFTETSIILFLNKKDLFEEKIKRSPLTICYPEYTGSNTYEEAAAYIQCQFEDLNRRKDTKEIYTHFTCATDTKNVQFVFDAVTDVIIKNNLKECGLY [chain 1 K35A], the Kd was more than 10 µM and the ratio to parent was more than 20. In the case of chain 1 MGCTLSAEDKAAVERSKMIDRNLREDGEKAAKEVKLLLLGAGESGKSTIVKQMKIIHEDGYSEDECKQYKVVVYSNTIQSIIAIIRAMGRLKIDFGEAARADDARQLFVLAGSAEEGVMTPELAGVIKRLWRDGGVQACFSRSREYQLNDSASYYLNDLDRISQSNYIPTQQDVLRTRVKTTGIVETHFTFKDLYFKMFDVGGQRSERKKWIHCFEGVTAIIFCVALSDYDLVLAEDEEMNRMHESMKHFDSICNNKWFTETSIILFLNKKDLFEEKIKRSPLTICYPEYTGSNTYEEAAAYIQCQFEDLNRRKDTKEIYTHFTCATDTKNVQFVFDAVTDVIIKNNLKECGLY [chain 1 L249H], the ratio to parent was determined as 7.58. On the same count and under the same terms, the same measure for chain 1 MGCTLSAEDKAAVERSKMIDRNLREDGEKAAKEVKLLLLGAGESGKSTIVKQMKIIHEDGYSEDECKQYKVVVYSNTIQSIIAIIRAMGRLKIDFGEAARADDARQLFVLAGSAEEGVMTPELAGVIKRLWRDGGVQACFSRSREYQLNDSASYYLNDLDRISQSNYIPTQQDVLRTRVKTTGIVETHFTFKDLYFKMFDVGGQRSERKKWIHCFEGVTAIIFCVALSDYDLVLAEDEEMNRMHESMKVFDSICNNKWFTETSIILFLNKKDLFEEKIKRSPLTICYPEYTGSNTYEEAAAYIQCQFEDLNRRKDTKEIYTHFTCATDTKNVQFVFDAVTDVIIKNNLKECGLY [chain 1 L249V]: 2.35; for chain 1 MGCTLSAEDKAAVERSKMIDRNLREDGEKAAKEVKLALLGAGESGKSTIVKQMKIIHEDGYSEDECKQYKVVVYSNTIQSIIAIIRAMGRLKIDFGEAARADDARQLFVLAGSAEEGVMTPELAGVIKRLWRDGGVQACFSRSREYQLNDSASYYLNDLDRISQSNYIPTQQDVLRTRVKTTGIVETHFTFKDLYFKMFDVGGQRSERKKWIHCFEGVTAIIFCVALSDYDLVLAEDEEMNRMHESMKLFDSICNNKWFTETSIILFLNKKDLFEEKIKRSPLTICYPEYTGSNTYEEAAAYIQCQFEDLNRRKDTKEIYTHFTCATDTKNVQFVFDAVTDVIIKNNLKECGLY [chain 1 L37A]: 0.822. As to chain 1 MGCTLSAEDKAAVERSKMIDRNLREDGEKAAKEVKLLLLGAGESGKSTIVKQMKIIHEDGYSEDECKQYKVVVYSNTIQSIIAIIRAMGRLKIDFGEAARADDARQLFVLAGSAEEGVMTPELAGVIKRLWRDGGVQACFSRSREYQLNDSASYYLNDLDRISQSNYIPTQQDVLRTRVKTTGIVETHFTFKDLYFKMFDVGGQRSERKKWIHCAEGVTAIIFCVALSDYDLVLAEDEEMNRMHESMKLFDSICNNKWFTETSIILFLNKKDLFEEKIKRSPLTICYPEYTGSNTYEEAAAYIQCQFEDLNRRKDTKEIYTHFTCATDTKNVQFVFDAVTDVIIKNNLKECGLY [chain 1 F215A], the Kd was more than 10 µM and the ratio to parent was more than 20.
